Results as given in the supplement of paper PMC9112550, “Optimization of the antimicrobial peptide Bac7 by deep mutational scanning” (BMC Biology, 2022).

These sequences were tested on Escherichia coli TOP10 (assay: shrunken log2 fold change of peptide-encoding DNA abundance (4.5 h post-induction vs induction); higher = less antimicrobial activity (less host growth inhibition)). Conditions: time post-induction: 4.5 h; library: site-saturation at positions 5, 18, 19, 20.
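Further: peptides expressed intracellularly from a pBAD plasmid library in pooled LB shake-flask culture, induced with 0.3% L-arabinose, DNA abundance read by NGS, three biological replicates, DESeq2 with apeglm shrinkage.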

Sequence | shrunken log2 fold change
RRIRNRPPRLPRPRPRPSQAPRP | 0.0297
RRIRTRPPRLPRPRPRPTLHPRP | -0.126
RRIRARPPRLPRPRPRPTHKPRP | 0.577
RRIRYRPPRLPRPRPRPLKGPRP | -0.00142
RRIRYRPPRLPRPRPRPLYDPRP | -0.51
RRIRKRPPRLPRPRPRPCIWPRP | 0.0573
RRIRNRPPRLPRPRPRPVYTPRP | -0.361
RRIRQRPPRLPRPRPRPQQPPRP | 0.00789
RRIRFRPPRLPRPRPRPRNIPRP | -0.313
RRIRIRPPRLPRPRPRPHENPRP | -0.581
RRIRFRPPRLPRPRPRPRYIPRP | -0.392
RRIRVRPPRLPRPRPRPCFEPRP | -0.0173
RRIRGRPPRLPRPRPRPGQSPRP | -0.00151
RRIRYRPPRLPRPRPRPMIHPRP | -0.0658
RRIRGRPPRLPRPRPRPERAPRP | 1.4
RRIRFRPPRLPRPRPRPNKKPRP | -0.212
RRIRCRPPRLPRPRPRPCVQPRP | -0.153
RRIRLRPPRLPRPRPRPTHVPRP | 0.329
RRIRFRPPRLPRPRPRPGFSPRP | -0.407
RRIRFRPPRLPRPRPRPYRKPRP | -0.186
RRIRVRPPRLPRPRPRPSKYPRP | -0.783
RRIRARPPRLPRPRPRPEMYPRP | 0.151
RRIRQRPPRLPRPRPRPCNTPRP | -0.257
RRIRDRPPRLPRPRPRPDRQPRP | 0.0286
RRIRARPPRLPRPRPRPIMKPRP | 0.102

Sequence | shrunken log2 fold change
RRIRCRPPRLPRPRPRPCELPRP | -0.146
RRIRSRPPRLPRPRPRPCLFPRP | -0.193
RRIRERPPRLPRPRPRPWFPPRP | -0.206
RRIRFRPPRLPRPRPRPVKMPRP | -0.0692
RRIRIRPPRLPRPRPRPNLTPRP | 0.0979
RRIRARPPRLPRPRPRPFRMPRP | -0.184
RRIRPRPPRLPRPRPRPGRSPRP | 0.0919
RRIRGRPPRLPRPRPRPWPIPRP | -0.095
RRIRDRPPRLPRPRPRPYRHPRP | -0.0137
RRIRRRPPRLPRPRPRPGRRPRP | 0.456
RRIRWRPPRLPRPRPRPCTYPRP | -0.473
RRIRWRPPRLPRPRPRPGAEPRP | 1.17
RRIRYRPPRLPRPRPRPPFVPRP | -0.304
RRIRLRPPRLPRPRPRPYDIPRP | 0.00601
RRIRPRPPRLPRPRPRPLKWPRP | 0.398
RRIRSRPPRLPRPRPRPICQPRP | -0.00676
RRIRRRPPRLPRPRPRPTMVPRP | 0.283
RRIRLRPPRLPRPRPRPQLTPRP | 0.103
RRIRHRPPRLPRPRPRPCEVPRP | -0.00674
RRIRNRPPRLPRPRPRPPMQPRP | 0.0237
RRIRGRPPRLPRPRPRPVEWPRP | 0.0602
RRIRWRPPRLPRPRPRPWMPPRP | -0.127
RRIRVRPPRLPRPRPRPHLLPRP | -0.272
RRIRFRPPRLPRPRPRPHKMPRP | -0.154
RRIRNRPPRLPRPRPRPCGDPRP | 0.0293

Sequence | shrunken log2 fold change
RRIRHRPPRLPRPRPRPCSIPRP | -0.0189
RRIRARPPRLPRPRPRPLCGPRP | 0.467
RRIRFRPPRLPRPRPRPQQFPRP | 0.0682
RRIRARPPRLPRPRPRPSYQPRP | -0.234
RRIRFRPPRLPRPRPRPRAPPRP | 0.821
RRIRGRPPRLPRPRPRPGENPRP | -0.0369
RRIRDRPPRLPRPRPRPGEMPRP | 0.163
RRIRFRPPRLPRPRPRPNYLPRP | -0.381
RRIRVRPPRLPRPRPRPLTDPRP | 0.0682
RRIRCRPPRLPRPRPRPDHHPRP | -0.246
RRIRRRPPRLPRPRPRPTCHPRP | 0.0647
RRIRGRPPRLPRPRPRPDPRPRP | 0.716
RRIRLRPPRLPRPRPRPPPEPRP | 1.35
RRIRWRPPRLPRPRPRPSDLPRP | -0.175
RRIRSRPPRLPRPRPRPQLGPRP | 0.115
RRIRQRPPRLPRPRPRPYSFPRP | -0.141
RRIRCRPPRLPRPRPRPQRDPRP | -0.304
RRIRIRPPRLPRPRPRPPRTPRP | 0.195
RRIRIRPPRLPRPRPRPGSWPRP | 0.227
RRIRDRPPRLPRPRPRPWPDPRP | 0.129
RRIRPRPPRLPRPRPRPGMFPRP | -0.0259
RRIRCRPPRLPRPRPRPTTWPRP | -0.125
RRIRTRPPRLPRPRPRPLEEPRP | -0.0207
RRIRWRPPRLPRPRPRPNPHPRP | -0.0669
RRIRERPPRLPRPRPRPKRPPRP | 0.194

Sequence | shrunken log2 fold change
RRIRRRPPRLPRPRPRPCPYPRP | 0.0825
RRIRIRPPRLPRPRPRPGADPRP | -0.193
RRIRFRPPRLPRPRPRPEAHPRP | 0.171
RRIRPRPPRLPRPRPRPKFRPRP | -0.122
RRIRLRPPRLPRPRPRPPYQPRP | -0.0294
RRIRLRPPRLPRPRPRPKILPRP | -0.143
RRIRQRPPRLPRPRPRPKDRPRP | -0.115
RRIRLRPPRLPRPRPRPYNKPRP | 1.41
RRIRPRPPRLPRPRPRPSDHPRP | -0.605
RRIRPRPPRLPRPRPRPFQEPRP | -0.185
RRIRARPPRLPRPRPRPGSLPRP | 0.056
RRIRKRPPRLPRPRPRPPVCPRP | 0.336
RRIRSRPPRLPRPRPRPTCVPRP | 0.0671
RRIRKRPPRLPRPRPRPRNKPRP | -0.08
RRIRDRPPRLPRPRPRPSCGPRP | 0.301
RRIRARPPRLPRPRPRPGKEPRP | 0.222
RRIRKRPPRLPRPRPRPPIAPRP | 0.464
RRIRVRPPRLPRPRPRPMWFPRP | -0.0469
RRIRDRPPRLPRPRPRPQSKPRP | -0.0457
RRIRFRPPRLPRPRPRPDDGPRP | -0.0366
RRIRSRPPRLPRPRPRPAHVPRP | -0.0302
RRIRHRPPRLPRPRPRPVCIPRP | -1.22
RRIRPRPPRLPRPRPRPLGNPRP | -0.173
RRIRKRPPRLPRPRPRPMYFPRP | -0.0354
RRIRQRPPRLPRPRPRPNEQPRP | 0.0394

Sequence | shrunken log2 fold change
RRIRERPPRLPRPRPRPFKIPRP | -0.0307
RRIRERPPRLPRPRPRPYDIPRP | -0.136
RRIRFRPPRLPRPRPRPDGLPRP | 0.00785
RRIRPRPPRLPRPRPRPAQYPRP | 0.0469
RRIRCRPPRLPRPRPRPTAVPRP | 0.393
RRIRMRPPRLPRPRPRPNNEPRP | -0.0748
RRIRPRPPRLPRPRPRPNDPPRP | -0.0507
RRIRCRPPRLPRPRPRPKFWPRP | 0.449
RRIRYRPPRLPRPRPRPHWQPRP | -0.0696
RRIRSRPPRLPRPRPRPMSMPRP | -0.293
RRIRLRPPRLPRPRPRPRKRPRP | 0.314
RRIRYRPPRLPRPRPRPRQVPRP | -0.206
RRIRKRPPRLPRPRPRPSEDPRP | -0.0464
RRIRIRPPRLPRPRPRPDSSPRP | -0.318
RRIRCRPPRLPRPRPRPQWQPRP | 0.0413
RRIRVRPPRLPRPRPRPIFCPRP | 0.078
RRIRERPPRLPRPRPRPIGFPRP | -0.134
RRIRQRPPRLPRPRPRPLCTPRP | -0.543
RRIRWRPPRLPRPRPRPTGCPRP | 0.141
RRIRQRPPRLPRPRPRPETMPRP | 0.192
RRIRARPPRLPRPRPRPLQKPRP | 0.586
RRIRFRPPRLPRPRPRPNLDPRP | -0.18
RRIRIRPPRLPRPRPRPPGSPRP | 0.0671
RRIRCRPPRLPRPRPRPENGPRP | -0.0135
RRIRSRPPRLPRPRPRPDSNPRP | -0.529

Sequence | shrunken log2 fold change
RRIRRRPPRLPRPRPRPLQHPRP | 0.387
RRIRPRPPRLPRPRPRPDGVPRP | 0.14
RRIRGRPPRLPRPRPRPPNLPRP | 0.463
RRIRKRPPRLPRPRPRPKMEPRP | 0.368
RRIRIRPPRLPRPRPRPCDMPRP | -0.511
RRIRPRPPRLPRPRPRPVDNPRP | 0.0523
RRIRVRPPRLPRPRPRPVMPPRP | -0.0577
RRIRWRPPRLPRPRPRPGVGPRP | 1.27
RRIRYRPPRLPRPRPRPMVMPRP | -0.0337
RRIRHRPPRLPRPRPRPGRMPRP | -0.313
RRIRVRPPRLPRPRPRPFSEPRP | -0.237
RRIRERPPRLPRPRPRPAGDPRP | 3.19
RRIRIRPPRLPRPRPRPNVFPRP | -0.27
RRIRIRPPRLPRPRPRPCFKPRP | -1.04
RRIRQRPPRLPRPRPRPFHSPRP | -0.00884
RRIRNRPPRLPRPRPRPDALPRP | 0.0233
RRIRKRPPRLPRPRPRPRSWPRP | 0.833
RRIRQRPPRLPRPRPRPDVFPRP | -0.211
RRIRIRPPRLPRPRPRPPWRPRP | 0.507
RRIRIRPPRLPRPRPRPKVLPRP | -0.0165
RRIRARPPRLPRPRPRPQRMPRP | 0.0748
RRIRSRPPRLPRPRPRPPRLPRP | 0.322
RRIRHRPPRLPRPRPRPDIHPRP | -0.171
RRIRGRPPRLPRPRPRPNHKPRP | -0.195
RRIRIRPPRLPRPRPRPAISPRP | 0.0106
